Test [1] concerns the target human TGF-β1 (human) (UniProt P01137). The test can be described thus: ELISA, TGF-β1 coated at 0.5 µg/ml, HRP anti-human IgG detection, OD450. A general note: In an ELISA, binding on a coated surface is turned into a signal by an enzyme label.
Test [2] concerns the target human TGF-β3 (human) (UniProt P10600). The test can be described thus: ELISA, TGF-β3 coated at 0.5 µg/ml, HRP anti-human IgG detection, OD450.
Test [3] addresses human PD-L1 on CHO-K1 cells (human) (UniProt Q9NZQ7). The test can be described thus: flow cytometry on CHO-K1 cells overexpressing human PD-L1, PE anti-human IgG detection, median fluorescence intensity. (In general: A flow cytometer gives signals particle by particle.)
Test [4] has the same target. The test can be described thus: dual-target flow cytometry: sample pre-mixed with 3 µg/ml human TGF-β1, then CHO-K1 cells overexpressing human PD-L1, detection with PE anti-human TGF-β1 antibody (signal needs PD-L1 and TGF-β1 bound at once).

EC50 data for one substance are collected here from patent publication US20240026004A1.

What is called EC50 is the concentration at which the effect is half-maximal.

human PD-L1 on CHO-K1 cells (human), sequence (Q9NZQ7 19-290): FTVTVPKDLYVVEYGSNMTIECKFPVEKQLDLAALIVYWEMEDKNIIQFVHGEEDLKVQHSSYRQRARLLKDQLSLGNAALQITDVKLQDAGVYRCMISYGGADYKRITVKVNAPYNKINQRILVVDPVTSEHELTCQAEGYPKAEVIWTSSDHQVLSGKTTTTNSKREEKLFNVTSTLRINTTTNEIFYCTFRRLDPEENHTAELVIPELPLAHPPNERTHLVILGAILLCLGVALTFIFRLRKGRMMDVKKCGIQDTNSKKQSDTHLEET
human TGF-β3 (human), sequence (P10600 301-412 limits assumed): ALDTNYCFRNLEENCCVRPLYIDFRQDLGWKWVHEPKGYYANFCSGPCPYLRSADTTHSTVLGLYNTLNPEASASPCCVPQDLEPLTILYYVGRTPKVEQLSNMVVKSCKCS
human TGF-β1 (human), sequence (P01137 279-390 limits assumed): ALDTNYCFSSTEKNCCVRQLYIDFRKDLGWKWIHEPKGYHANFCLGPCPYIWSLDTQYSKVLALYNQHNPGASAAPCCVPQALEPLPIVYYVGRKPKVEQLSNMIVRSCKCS

With “900544 (control drug M7824 from Merck, expressed in-house) (bispecific antibody)”, the EC50 in test [1] stood at 0.598 nM; in test [2] it was 1.12 nM; in test [3] it was 1.43 nM; in test [4], 0.788 nM.
